{
  "source": "patent US8173600",
  "target": "T1, 2-Quinolinylcarbonyl-L-Valinyl-L-Aspartyl (methyl ester)-L-Valinyl-L-Alanyl-L-Aspartyl (methyl ester) 2,6-difluorophenyl ester",
  "T1 chain": "VDVAD",
  "data": [
    {"protein": "human recombinant caspase-3 (protein) SGISLDNSYKMDYPEMGLCIIINNKNFHKSTGMTSRSGTDVDAANLRETFRNLKYEVRNKNDLTREEIVELMRDVSKEDHSKRSSFVCVLLSHGEEGIIFGTNGPVDLKKITNFFRGDRCRSLTGKPKLFIIQACRGTELDCGIETDSGVDDDMACHKIPVEADFLYAYSTAPGYYSWRNSKDGSWFIQSLCAMLKQYADKLEFMHILTRVNRKVATEFESFSFDATFHAKKQIPCIVSMLTKELYFYH", "values": [
      {"measurement": "in vitro cleavage of Ac-DEVD-AMC by the recombinant caspase", "value": "no cross reactivity against other caspases"}
    ]},
    {"protein": "human recombinant caspase-6 (protein) AFYKREMFDPAEKYKMDHRRRGIALIFNHERFFWHLTLPERRGTCADRDNLTRRFSDLGFEVKCFNDLKAEELLLKIHEVSTVSHADADCFVCVFLSHGEGNHIYAYDAKIEIQTLTGLFKGDKCHSLVGKPKIFIIQACRGNQHDVPVIPLDVVDNQTEKLDTNITEVDAASVYTLPAGADFLMCYSVAEGYYSHRETVNGSWYIQDLCEMLGKYGSSLEFTELLTLVNRKVSQRRVDFCKDPSAIGKKQVPCFASMLTKKLHFFPKSN", "values": [
      {"measurement": "in vitro cleavage of Ac-VEID-AMC by the recombinant caspase", "value": "no cross reactivity against other caspases"}
    ]},
    {"protein": "human recombinant caspase-9 (protein) MDEADRRLLRRCRLRLVEELQVDQLWDALLSRELFRPHMIEDIQRAGSGSRRDQARQLIIDLETRGSQALPLFISCLEDTGQDMLASFLRTNRQAAKLSKPTLENLTPVVLRPEIRKPEVLRPETPRPVDIGSGGFGDVGALESLRGNADLAYILSMEPCGHCLIINNVNFCRESGLRTRTGSNIDCEKLRRRFSSLHFMVEVKGDLTAKKMVLALLELAQQDHGALDCCVVVILSHGCQASHLQFPGAVYGTDGCPVSVEKIVNIFNGTSCPSLGGKPKLFFIQACGGEQKDHGFEVASTSPEDESPGSNPEPDATPFQEGLRTFDQLDAISSLPTPSDIFVSYSTFPGFVSWRDPKSGSWYVETLDDIFEQWAHSEDLQSLLLRVANAVSVKGIYKQMPGCFNFLRKKLFFKTS", "values": [
      {"measurement": "in vitro cleavage of Ac-LEHD-AMC by the recombinant caspase", "value": "no cross reactivity against other caspases"}
    ]},
    {"protein": "human recombinant caspase-10 (protein) VKTFLEALPQESWQNKHAGSNGNRATNGAPSLVSRGMQGASANTLNSETSTKRAAVYRMNRNHRGLCVIVNNHSFTSLKDRQGTHKDAEILSHVFQWLGFTVHIHNNVTKVEMEMVLQKQKCNPAHADGDCFVFCILTHGRFGAVYSSDEALIPIREIMSHFTALQCPRLAEKPKLFFIQACQGEEIQPSVSIEADALNPEQAPTSLQDSIPAEADFLLGLATVPGYVSFRHVEEGSWYIQSLCNHLKKLVPRMLKFLEKTMEIRGRKRTVWGAKQISATSLPTAISAQTPRPPMRRWSSVS", "values": [
      {"measurement": "in vitro cleavage of Ac-IETD-AMC by the recombinant caspase", "value": "no cross reactivity against other caspases"}
    ]},
    {"protein": "human recombinant caspase-8 (protein) SESQTLDKVYQMKSKPRGYCLIINNHNFAKAREKVPKLHSIRDRNGTHLDAGALTTTFEELHFEIKPHDDCTVEQIYEILKIYQLMDHSNMDCFICCILSHGDKGIIYGTDGQEAPIYELTSQFTGLKCPSLAGKPKVFFIQACQGDNYQKGIPVETDSEEQPYLEMDLSSPQTRYIPDEADFLLGMATVNNCVSYRNPAEGTWYIQSLCQSLRERCPRGDDILTILTEVNYEVSNKDDKKNMGKQMPQPTFTLRKKLVFPSD", "values": [
      {"measurement": "in vitro cleavage of Ac-IETD-AMC by the recombinant caspase", "value": "no cross reactivity against other caspases"}
    ]},
    {"protein": "caspase-2 in brain of ischemic rat pups (protein) GPPCLQVKPCTPEFYQAHYQLAYRLQSQPRGLALVMSNVHFTGEKDLEFRSGGDVDHTTLVTLFKLLGYNVHVLYDQTAQEMQEKLQNFAQLPAHRVTDSCIVALLSHGVEGGIYGVDGKLLQLQEVFRLFDNANCPSLQNKPKMFFIQACRGDETDRGVDQQDGKNHAQSPGCEESDAGKEELMKMRLPTRSDMICGYACLKGNAAMRNTKRGSWYIEALTQVFSERACDMHVADMLVKVNALIKEREGYAPGTEFHRCKEMSEYCSTLCQQLYLFPGYPPT", "values": [
      {"measurement": "caspase-2 activity (VDVAD-AMC cleavage) and caspase-2 processing (western blot) in brain homogenates", "value": "it inhibited caspase-2 activity as well as caspase-2 processing in brain of ischemic rat pups"}
    ]},
    {"protein": "human recombinant caspase-7 (protein) AKPDRSSFVPSLFSKKKKNVTMRSIKTTRDRVPTYQYNMNFEKLGKCIIINNKNFDKVTGMGVRNGTDKDAEALFKCFRSLGFDVIVYNDCSCAKMQDLLKKASEEDHTNAACFACILLSHGEENVIYGKDGVTPIKDLTAHFRGDRCKTLLEKPKLFFIQACRGTELDDGIQADSGPINDTDANPRYKIPVEADFLFAYSTVPGYYSWRSPGRGSWFVQALCSILEEHGKDLEIMQILTRVNDRVARHFESQSDDPHFHEKKQIPCVVSMLTKELYFSQ", "values": [
      {"measurement": "in vitro cleavage of Ac-DEVD-AMC by the recombinant caspase", "value": "no cross reactivity against other caspases"}
    ]},
    {"protein": "human recombinant caspase-4 (protein) QISPNKKAHPNMEAGPPESGESTDALKLCPHEEFLRLCKERAEEIYPIKERNNRTRLALIICNTEFDHLPPRNGADFDITGMKELLEGLDYSVDVEENLTARDMESALRAFATRPEHKSSDSTFLVLMSHGILEGICGTVHDEKKPDVLLYDTIFQIFNNRNCLSLKDKPKVIIVQACRGANRGELWVRDSPASLEVASSQSSENLEEDAVYKTHVEKDFIAFCSSTPHNVSWRDSTMGSIFITQLITCFQKYSWCCHLEEVFRKVQQSFETPRAKAQMPTIERLSMTRYFYLFPGN", "values": [
      {"measurement": "in vitro cleavage of Ac-WEHD-AMC by the recombinant caspase", "value": "no cross reactivity against other caspases"}
    ]},
    {"protein": "human recombinant caspase-5 (protein) DQKITSVKPLLQIEAGPPESAESTNILKLCPREEFLRLCKKNHDEIYPIKKREDRRRLALIICNTKFDHLPARNGAHYDIVGMKRLLQGLGYTVVDEKNLTARDMESVLRAFAARPEHKSSDSTFLVLMSHGILEGICGTAHKKKKPDVLLYDTIFQIFNNRNCLSLKDKPKVIIVQACRGEKHGELWVRDSPASLALISSQSSENLEADSVCKIHEEKDFIAFCSSTPHNVSWRDRTRGSIFITELITCFQKYSCCCHLMEIFRKVQKSFEVPQAKAQMPTIERATLTRDFYLFPGN", "values": [
      {"measurement": "in vitro cleavage of Ac-WEHD-AMC by the recombinant caspase", "value": "no cross reactivity against other caspases"}
    ]},
    {"protein": "human recombinant caspase-1 (protein) NPAMPTSSGSEGNVKLCSLEEAQRIWKQKSAEIYPIMDKSSRTRLALIICNEEFDSIPRRTGAEVDITGMTMLLQNLGYSVDVKKNLTASDMTTELEAFAHRPEHKTSDSTFLVFMSHGIREGICGKKHSEQVPDILQLNAIFNMLNTKNCPSLKDKPKVIIIQACRGDSPGVVWFKDSVGVSGNLSLPTTEEFEDDAIKKAHIEKDFIAFCSSTPDNVSWRHPTMGSVFIGRLIEHMQEYACSCDVEEIFRKVRFSFEQPDGRAQMPTTERVTLTRCFYLFPGH", "values": [
      {"measurement": "in vitro cleavage of Ac-YVAD-AMC by the recombinant caspase", "value": "no cross reactivity against other caspases"}
    ]}
  ]
}
